This is an account of results in patent US20200332006A1 (ULTRAHUMAN NINE, published 2020).

For experiment [1], the target named is T1, human PD1, membrane-expressed on transfected cells (CHO-K1 stable line, HEK293 transfectants, PD1 effector … (human, UniProt Q15116 25-288)).
T1 construct: also called PD1 (PDCD1) NM_005018; membrane-presented human PD1
Nature of the experiment: Retrogenix cell microarray, fixed HEK293 cells, 2 ug/ml IgG.

The target in experiment [2] is T2, human LSAMP, expressed on HEK293 cells (human, UniProt Q13449 29-315).
T2 construct: also called BC033803
T2 sequence: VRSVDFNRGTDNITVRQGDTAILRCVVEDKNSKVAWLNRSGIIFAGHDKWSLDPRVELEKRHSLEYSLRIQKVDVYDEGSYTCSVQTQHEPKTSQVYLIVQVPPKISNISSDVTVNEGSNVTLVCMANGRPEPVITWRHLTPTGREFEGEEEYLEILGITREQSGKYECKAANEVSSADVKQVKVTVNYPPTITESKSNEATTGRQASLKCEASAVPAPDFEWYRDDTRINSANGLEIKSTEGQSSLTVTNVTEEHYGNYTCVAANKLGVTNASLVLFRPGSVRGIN
Description: flow cytometry on transfected HEK293 cells, 2 ug/ml IgG. As for the experimental part: (§1) FIG. 11. […] Analyses of binding specificity were performed on HEK293 cells transiently transfected with plasmids encoding either human PD1, human BTN2A1, human LSAMP, human CD20 or ZS green marker only. Each antibody was used in staining at […] concentration and histograms are indicated per antibody in this figure.
(§2) Human cell membrane receptor proteome arrays were performed at Retrogenix Ltd. Primary screens: 2 μg/ml of each antibody was screened for binding against fixed HEK293 cells/slides expressing 5528 human plasma membrane and tethered secreted proteins individually. […] Antibody binding was detected using AF647 fluorescent secondary anti-human IgG1 antibody. Primary hits (duplicate spots) were identified by analysing fluorescence (AF647 and ZsGreen1) on ImageQuant. Confirmation/specificity screens: Expression vectors encoding ZsGreen1 only, or ZsGreen1 and CD20, PD1, BTN2A1, or LSAMP were transfected into human HEK293 cells. […] Cells were washed, and incubated with the same AF647 anti-human IgG Fc detection antibody as used in the cell microarray screens. Cells were again washed, and analysed by flow cytometry using an Accuri flow cytometer (BD). A 7AAD live/dead dye was used to exclude dead cells, and ZsGreen1-positive cells (i.e. transfected cells) were selected for analyses.

Experiment [3] deals with T3, human BTN2A1, expressed on HEK293 cells (human, UniProt Q7KYR7 29-527).
T3 construct: also called NM_007049
T3 sequence: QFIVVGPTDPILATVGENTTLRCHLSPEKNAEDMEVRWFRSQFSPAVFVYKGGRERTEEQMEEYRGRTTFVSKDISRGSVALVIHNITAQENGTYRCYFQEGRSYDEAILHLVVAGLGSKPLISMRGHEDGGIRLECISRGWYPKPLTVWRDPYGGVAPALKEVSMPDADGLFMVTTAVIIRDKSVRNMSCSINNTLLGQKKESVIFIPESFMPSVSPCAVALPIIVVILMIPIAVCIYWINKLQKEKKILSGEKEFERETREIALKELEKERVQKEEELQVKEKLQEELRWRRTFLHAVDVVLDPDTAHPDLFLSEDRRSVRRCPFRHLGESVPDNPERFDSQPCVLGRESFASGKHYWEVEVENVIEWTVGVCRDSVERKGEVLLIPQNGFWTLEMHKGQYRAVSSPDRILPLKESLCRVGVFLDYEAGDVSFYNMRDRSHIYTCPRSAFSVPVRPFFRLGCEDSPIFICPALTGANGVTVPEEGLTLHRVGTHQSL
Described as above. As for the experimental part:
as §1, §2

Experiment [4] has as its target T4, human CD20, expressed on HEK293 cells (human, UniProt P11836 1-297).
T4 construct: whole, on cells
T4 sequence (looked up): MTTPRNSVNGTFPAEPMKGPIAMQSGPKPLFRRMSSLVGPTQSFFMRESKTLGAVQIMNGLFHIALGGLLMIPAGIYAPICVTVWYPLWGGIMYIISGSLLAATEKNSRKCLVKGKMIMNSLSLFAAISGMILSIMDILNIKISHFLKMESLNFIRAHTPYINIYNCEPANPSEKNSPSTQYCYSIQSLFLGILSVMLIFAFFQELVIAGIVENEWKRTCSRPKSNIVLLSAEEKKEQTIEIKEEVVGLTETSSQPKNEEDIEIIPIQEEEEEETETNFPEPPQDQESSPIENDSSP
Described as above. As for the experimental part: as §1, §2

Experiment [5] addresses T2, human LSAMP, expressed on HEK293 cells. Description: flow cytometry on live transfected HEK293 cells. As for the experimental part:
as §1, §2

The target in experiment [6] is T4, human CD20, expressed on HEK293 cells. Description: flow cytometry on live transfected HEK293 cells. As for the experimental part: as §1, §2
Experiment [7] deals with T3, human BTN2A1, expressed on HEK293 cells. Description: Retrogenix cell microarray, fixed HEK293 cells. As for the experimental part:
as §2

The target of experiment [8] is T5, cynomolgus monkey PD1, membrane-expressed on CHO-K1 stable cell line (cynomolgus monkey, UniProt Q15116 25-288 (human entry)).
T5 construct: Genscript cell line M00572; also called membrane-presented cyno PD1
T5 chain: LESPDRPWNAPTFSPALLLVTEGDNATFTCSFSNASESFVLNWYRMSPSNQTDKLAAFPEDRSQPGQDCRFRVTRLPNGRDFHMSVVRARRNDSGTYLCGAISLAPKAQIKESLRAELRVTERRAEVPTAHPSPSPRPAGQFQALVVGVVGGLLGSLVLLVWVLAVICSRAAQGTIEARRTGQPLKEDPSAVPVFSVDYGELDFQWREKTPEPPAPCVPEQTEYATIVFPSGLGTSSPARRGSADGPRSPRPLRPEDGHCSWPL
Nature of the experiment: flow cytometry on CHO cells stably transfected with cyno PD1 (reference antibody). As for the experimental part: The IgG samples were titrated in three-fold serial dilutions starting at 500 nM to 0.98 nM. Binding of IgGs was detected with a mouse anti-human IgG conjugated to FITC. Results were analyzed by examining the Mean Fluorescence Intensity (MFI) of 10000 cells per sample in the BL-1 channel detector of a flow cytometer (Attune™ NxT Acoustic Focusing Cytometer, Invitrogen/ThermoFisher Scientific).
Antibodies to PD1 were analysed for concentration-dependent binding at the cell surface via flow cytometry. Initial analyses were performed on CHO cells stably-transfected with human or cyno PD1.
On the technique in general: A flow cytometer gives signals particle by particle.

T1 sequence (Q15116 25-288 limits assumed): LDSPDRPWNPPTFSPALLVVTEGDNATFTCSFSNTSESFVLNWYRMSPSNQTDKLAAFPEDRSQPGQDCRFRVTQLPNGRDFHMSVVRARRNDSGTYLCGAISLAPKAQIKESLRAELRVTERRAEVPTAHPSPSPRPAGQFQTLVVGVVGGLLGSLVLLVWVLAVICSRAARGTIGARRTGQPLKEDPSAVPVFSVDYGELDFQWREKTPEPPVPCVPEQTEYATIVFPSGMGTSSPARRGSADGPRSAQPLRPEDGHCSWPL

B1: Hu317 humanized anti-PD1 antibody, IgG1null format (antibody, V domains shown)
VH: QVQLQESGPGLVKPSETLSLTCTVSGFSLTSYGVHWIRQPPGKGLEWIGVIYADGSTNYNPSLKSRVTISKDTSKNQVSLKLSSVTAADTAVYYCARAYGNYWYIDVWGQGTTVTVSS
VL: DIVMTQSPDSLAVSLGERATINCKSSESVSNDVAWYQQKPGQPPKLLINYAFHRFTGVPDRFSGSGYGTDFTLTISSLQAEDVAVYYCHQAYSSPYTFGQGTKLEIK
notes: Tested as IgG1null (human IgG1 L234A, L235A, G237A) with human Ckappa; also called hu317 IgG1
Regarding B1, the binding result is listed as “binds” in experiment [1]; “no binding (tested: 2 ug/ml)” in experiment [5]; “no binding (tested: 2 ug/ml)” in experiment [6]; “no binding (tested: 2 ug/ml)” in experiment [7]; “binds” in experiment [8]. Further, the “fold fluorescence change versus mock (ZSgreen only) cells” value in experiment [2] came to 1.5 fold; in experiment [3], 1.2 fold; in experiment [4], 1.4 fold.
